The text below walks through data of PMC6555802.

This assay deals with CHML (fluorescence titration) (human) (UniProt P26374). The assay can be described thus: other fluorescence titration; fluorescence titration assay (Supplementary Fig. 8); conditions not stated in the text shown.
CHML (fluorescence titration) (human), sequence (P26374 whole entry): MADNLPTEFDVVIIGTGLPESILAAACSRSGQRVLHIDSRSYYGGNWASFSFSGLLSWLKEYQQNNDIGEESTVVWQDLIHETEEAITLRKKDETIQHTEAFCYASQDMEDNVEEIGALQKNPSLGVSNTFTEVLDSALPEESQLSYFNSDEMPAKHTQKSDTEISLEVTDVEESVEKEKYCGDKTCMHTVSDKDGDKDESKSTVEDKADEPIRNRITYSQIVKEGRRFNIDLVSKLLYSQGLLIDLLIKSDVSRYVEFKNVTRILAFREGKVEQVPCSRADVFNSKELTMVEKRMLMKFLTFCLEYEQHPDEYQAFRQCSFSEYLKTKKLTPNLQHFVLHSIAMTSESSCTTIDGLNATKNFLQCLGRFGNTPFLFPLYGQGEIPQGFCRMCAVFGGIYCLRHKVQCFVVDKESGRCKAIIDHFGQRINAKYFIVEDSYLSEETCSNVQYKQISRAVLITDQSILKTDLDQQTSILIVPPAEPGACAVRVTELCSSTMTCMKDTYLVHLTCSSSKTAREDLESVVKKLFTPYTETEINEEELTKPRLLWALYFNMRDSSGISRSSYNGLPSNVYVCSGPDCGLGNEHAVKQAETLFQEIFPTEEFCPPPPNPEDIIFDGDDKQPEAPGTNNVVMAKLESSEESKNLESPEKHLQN

What is called Kd is a measure of binding affinity in units of concentration. A higher Kd goes with weaker binding. The substance “Rab7A (fluorescence titration) (from UniProt P51149 1-207) (natural protein)” came in with a dissociation constant Kd of 7.84 nM.
